{"source": "the supplement of paper PMC10567573", "parents": {"B1": {"name": "TRAF3IP2 (parent)", "chain": "YGHDYPRAAYQQVIQPALPGQPLP"}}}
{"variants_of": "B1", "assay": "protein stability index of a GFP-peptide fusion (GPS, HEK-293T) (PSI 1-6); higher = more stable", "details": "c terminus: a fixed tail appended"}
{"variant": "YGHDYPRAHYQQVIQPALPGQPLP", "protein stability index": 1.92}
{"variant": "YGHDYPRAIYQQVIQPALPGQPLP", "protein stability index": 1.52}
{"variant": "YGHDYPRAKYQQVIQPALPGQPLP", "protein stability index": 2.4}
{"variant": "YGHDYPRALYQQVIQPALPGQPLP", "protein stability index": 2.16}
{"variant": "YGHDYPRAMYQQVIQPALPGQPLP", "protein stability index": 1.98}
{"variant": "YGHDYPRANYQQVIQPALPGQPLP", "protein stability index": 1.73}
{"variant": "YGHDYPRAPYQQVIQPALPGQPLP", "protein stability index": 2.11}
{"variant": "YGHDYPRAQYQQVIQPALPGQPLP", "protein stability index": 2.2}
{"variant": "YGHDYPRARYQQVIQPALPGQPLP", "protein stability index": 2.4}
{"variant": "YGHDYPRASYQQVIQPALPGQPLP", "protein stability index": 1.71}
{"variant": "YGHDYPRATYQQVIQPALPGQPLP", "protein stability index": 1.97}
{"variant": "YGHDYPRAVYQQVIQPALPGQPLP", "protein stability index": 2.04}
{"variant": "YGHDYPRAWYQQVIQPALPGQPLP", "protein stability index": 1.15}
{"variant": "YGHDYPRAYYQQVIQPALPGQPLP", "protein stability index": 2.02}
{"variant": "YGHDYPRAAAQQVIQPALPGQPLP", "protein stability index": 1.79}
{"variant": "YGHDYPRAACQQVIQPALPGQPLP", "protein stability index": 2.39}
{"variant": "YGHDYPRAADQQVIQPALPGQPLP", "protein stability index": 1.97}
{"variant": "YGHDYPRAAEQQVIQPALPGQPLP", "protein stability index": 2.17}
{"variant": "YGHDYPRAAFQQVIQPALPGQPLP", "protein stability index": 2.33}
{"variant": "YGHDYPRAAGQQVIQPALPGQPLP", "protein stability index": 1.91}
{"variant": "YGHDYPRAAHQQVIQPALPGQPLP", "protein stability index": 2.52}
{"variant": "YGHDYPRAAIQQVIQPALPGQPLP", "protein stability index": 2.02}
{"variant": "YGHDYPRAAKQQVIQPALPGQPLP", "protein stability index": 2.36}
{"variant": "YGHDYPRAALQQVIQPALPGQPLP", "protein stability index": 2}
{"variant": "YGHDYPRAAMQQVIQPALPGQPLP", "protein stability index": 1.65}
{"variant": "YGHDYPRAANQQVIQPALPGQPLP", "protein stability index": 1.85}
{"variant": "YGHDYPRAAPQQVIQPALPGQPLP", "protein stability index": 2.28}
{"variant": "YGHDYPRAAQQQVIQPALPGQPLP", "protein stability index": 2.07}
{"variant": "YGHDYPRAARQQVIQPALPGQPLP", "protein stability index": 1.7}
{"variant": "YGHDYPRAASQQVIQPALPGQPLP", "protein stability index": 1.75}
{"variant": "YGHDYPRAATQQVIQPALPGQPLP", "protein stability index": 1.97}
{"variant": "YGHDYPRAAVQQVIQPALPGQPLP", "protein stability index": 2.13}
{"variant": "YGHDYPRAAWQQVIQPALPGQPLP", "protein stability index": 1.75}
{"variant": "YGHDYPRAAYAQVIQPALPGQPLP", "protein stability index": 2.75}
{"variant": "YGHDYPRAAYCQVIQPALPGQPLP", "protein stability index": 3.05}
{"variant": "YGHDYPRAAYDQVIQPALPGQPLP", "protein stability index": 2.05}
{"variant": "YGHDYPRAAYEQVIQPALPGQPLP", "protein stability index": 2.09}
{"variant": "YGHDYPRAAYFQVIQPALPGQPLP", "protein stability index": 3.98}
{"variant": "YGHDYPRAAYGQVIQPALPGQPLP", "protein stability index": 1.79}
{"variant": "YGHDYPRAAYHQVIQPALPGQPLP", "protein stability index": 2.48}
{"variant": "YGHDYPRAAYIQVIQPALPGQPLP", "protein stability index": 2.94}
{"variant": "YGHDYPRAAYKQVIQPALPGQPLP", "protein stability index": 2.24}
{"variant": "YGHDYPRAAYLQVIQPALPGQPLP", "protein stability index": 3.77}
{"variant": "YGHDYPRAAYMQVIQPALPGQPLP", "protein stability index": 1.65}
{"variant": "YGHDYPRAAYNQVIQPALPGQPLP", "protein stability index": 1.96}
{"variant": "YGHDYPRAAYPQVIQPALPGQPLP", "protein stability index": 1.69}
{"variant": "YGHDYPRAAYRQVIQPALPGQPLP", "protein stability index": 1.59}
{"variant": "YGHDYPRAAYSQVIQPALPGQPLP", "protein stability index": 2.15}
{"variant": "YGHDYPRAAYTQVIQPALPGQPLP", "protein stability index": 3.14}
{"variant": "YGHDYPRAAYVQVIQPALPGQPLP", "protein stability index": 2.31}
{"variant": "YGHDYPRAAYWQVIQPALPGQPLP", "protein stability index": 1.94}
{"variant": "YGHDYPRAAYYQVIQPALPGQPLP", "protein stability index": 2.52}
{"variant": "YGHDYPRAAYQAVIQPALPGQPLP", "protein stability index": 1.96}
{"variant": "YGHDYPRAAYQCVIQPALPGQPLP", "protein stability index": 3.07}
{"variant": "YGHDYPRAAYQDVIQPALPGQPLP", "protein stability index": 1.58}
{"variant": "YGHDYPRAAYQEVIQPALPGQPLP", "protein stability index": 1.48}
{"variant": "YGHDYPRAAYQFVIQPALPGQPLP", "protein stability index": 2.56}
{"variant": "YGHDYPRAAYQGVIQPALPGQPLP", "protein stability index": 2.79}
{"variant": "YGHDYPRAAYQHVIQPALPGQPLP", "protein stability index": 2.01}
{"variant": "YGHDYPRAAYQIVIQPALPGQPLP", "protein stability index": 2.59}
{"variant": "YGHDYPRAAYQKVIQPALPGQPLP", "protein stability index": 2.37}
{"variant": "YGHDYPRAAYQLVIQPALPGQPLP", "protein stability index": 1.98}
{"variant": "YGHDYPRAAYQMVIQPALPGQPLP", "protein stability index": 3.06}
{"variant": "YGHDYPRAAYQNVIQPALPGQPLP", "protein stability index": 1.65}
{"variant": "YGHDYPRAAYQPVIQPALPGQPLP", "protein stability index": 3.46}
{"variant": "YGHDYPRAAYQRVIQPALPGQPLP", "protein stability index": 2.17}
{"variant": "YGHDYPRAAYQSVIQPALPGQPLP", "protein stability index": 2.13}
{"variant": "YGHDYPRAAYQTVIQPALPGQPLP", "protein stability index": 1.7}
{"variant": "YGHDYPRAAYQVVIQPALPGQPLP", "protein stability index": 3.04}
{"variant": "YGHDYPRAAYQWVIQPALPGQPLP", "protein stability index": 2.41}
{"variant": "YGHDYPRAAYQYVIQPALPGQPLP", "protein stability index": 2.61}
{"variant": "YGHDYPRAAYQQAIQPALPGQPLP", "protein stability index": 2.17}
{"variant": "YGHDYPRAAYQQCIQPALPGQPLP", "protein stability index": 2.04}
{"variant": "YGHDYPRAAYQQDIQPALPGQPLP", "protein stability index": 2.64}
{"variant": "YGHDYPRAAYQQEIQPALPGQPLP", "protein stability index": 1.74}
{"variant": "YGHDYPRAAYQQFIQPALPGQPLP", "protein stability index": 2.38}
{"variant": "YGHDYPRAAYQQGIQPALPGQPLP", "protein stability index": 2.45}
{"variant": "YGHDYPRAAYQQHIQPALPGQPLP", "protein stability index": 2.02}
{"variant": "YGHDYPRAAYQQIIQPALPGQPLP", "protein stability index": 1.98}
{"variant": "YGHDYPRAAYQQKIQPALPGQPLP", "protein stability index": 1.75}
{"variant": "YGHDYPRAAYQQLIQPALPGQPLP", "protein stability index": 2.26}
{"variant": "YGHDYPRAAYQQMIQPALPGQPLP", "protein stability index": 1.95}
{"variant": "YGHDYPRAAYQQNIQPALPGQPLP", "protein stability index": 2.09}
{"variant": "YGHDYPRAAYQQPIQPALPGQPLP", "protein stability index": 2.52}
{"variant": "YGHDYPRAAYQQQIQPALPGQPLP", "protein stability index": 2.25}
{"variant": "YGHDYPRAAYQQRIQPALPGQPLP", "protein stability index": 1.93}
{"variant": "YGHDYPRAAYQQSIQPALPGQPLP", "protein stability index": 2.6}
{"variant": "YGHDYPRAAYQQTIQPALPGQPLP", "protein stability index": 1.83}
{"variant": "YGHDYPRAAYQQWIQPALPGQPLP", "protein stability index": 2.4}
{"variant": "YGHDYPRAAYQQYIQPALPGQPLP", "protein stability index": 2.03}
{"variant": "YGHDYPRAAYQQVAQPALPGQPLP", "protein stability index": 1.5}
{"variant": "YGHDYPRAAYQQVCQPALPGQPLP", "protein stability index": 2.49}
{"variant": "YGHDYPRAAYQQVDQPALPGQPLP", "protein stability index": 1.22}
{"variant": "YGHDYPRAAYQQVEQPALPGQPLP", "protein stability index": 2}
